The values below come from patent publication US20240131162A1 (MacroGenics, published 2024).

The target of assay [1] is T1, HER-2 (human, UniProt P04626 23-652, limits assumed).
T1 construct: also called HER2/neu; erbB-2
The assay is described as follows: SPR (BIAcore), HER-2 immobilised, antibody as analyte. As to the method: The kinetic parameters of the binding of eluted and purified antibodies were analyzed using a BIACORE® assay (BIAcore instrument 1000, BIAcore Inc., Piscataway, N.J.) and associated software. HER-2 was immobilized on one of the four flow cells (flow cell 2) of a sensor chip surface through amine coupling chemistry (by modification of carboxymethyl groups with mixture of NHS/EDC) such that about 1000 response units (RU) of receptor was immobilized on the surface. Following this, the unreacted active esters were “capped off” with an injection of 1 M Et-NH2.
(In general: Surface plasmon resonance follows binding to a sensor surface in real time, without labels.)

Assay [2] addresses human CD16A (FcγRIII-A) (human, UniProt P08637 17-208, limits assumed). The experiment in a line: method not stated.
Assay [3] deals with T2, CD16A F158 (human, UniProt P08637 17-208, limits assumed).
T2 construct: construct not described
T2 sequence (P08637 17-208 limits assumed): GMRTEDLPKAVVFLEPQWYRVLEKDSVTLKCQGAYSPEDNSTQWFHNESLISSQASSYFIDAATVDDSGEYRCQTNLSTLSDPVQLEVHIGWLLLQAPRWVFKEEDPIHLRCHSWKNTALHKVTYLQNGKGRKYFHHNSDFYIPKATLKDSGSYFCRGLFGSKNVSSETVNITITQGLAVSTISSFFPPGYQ
The assay is described as follows: SPR (BIAcore), koff compared with wild-type Fc.

Assay [4] has as its target T3, CD32A^H (UniProt P12318 34-217, limits assumed).
T3 construct: also called FcγRIIA
T3 sequence (looked up): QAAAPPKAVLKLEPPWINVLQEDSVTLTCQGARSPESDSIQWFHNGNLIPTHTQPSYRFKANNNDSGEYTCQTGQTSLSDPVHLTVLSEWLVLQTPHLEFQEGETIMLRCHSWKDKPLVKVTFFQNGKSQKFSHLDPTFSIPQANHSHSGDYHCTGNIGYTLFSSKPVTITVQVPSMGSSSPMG
The experiment in a line: SPR (BIAcore), koff compared with wild-type Fc.

In assay [5] the target is T4, CD16A V158 (human, UniProt P08637 17-208, limits assumed).
T4 construct: construct not described
T4 sequence (P08637 17-208 F176V limits assumed): as the sequence (P08637 17-208 limits assumed) above, with F160V counted along it
The assay is described as follows: SPR (BIAcore), koff compared with wild-type Fc.

The target in assay [6] is T5, CD32B (FcγRII-B) (UniProt P31994 43-217, limits assumed).
T5 sequence (looked up): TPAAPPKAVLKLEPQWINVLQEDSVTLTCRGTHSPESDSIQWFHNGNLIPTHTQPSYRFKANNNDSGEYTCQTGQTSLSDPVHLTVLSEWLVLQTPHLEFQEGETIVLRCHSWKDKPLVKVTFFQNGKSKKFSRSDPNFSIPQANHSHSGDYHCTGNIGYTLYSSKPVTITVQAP
The experiment in a line: SPR (BIAcore), koff compared with wild-type Fc.

The target in assay [7] is T2, CD16A F158. The experiment in a line: method not stated at Table 3.
The target of assay [8] is T4, CD16A V158. The experiment in a line: method not stated at Table 3.
In assay [9] the target is T5, CD32B (FcγRII-B). The experiment in a line: method not stated at Table 3.

Sequence of human CD16A (FcγRIII-A) (P08637 17-208 limits assumed): as the sequence (P08637 17-208 limits assumed) above

B1: ch4D5-wild-type Fc (antibody, human IgG1, kappa)
heavy: not shown
light: DIVMTQSHKFMSTSVGDRVSITCKASQDVNTAVAWYQQKPGHSPKLLIYSASFRYTGVPDRFTGSRSGTDFTFTISSVQAEDLAVYYCQQHYTTPPTFGGGTKVEIKRTVAAPSVFIFPPSDEQLKSGTASVVCLLNNFYPREAKVQWKVDNALQSGNSQESVTEQDSKDSTYSLSSTLTLSKADYEKHKVYACEVTHQGLSSPVTKSFNRGEC
notes: Chimeric 4D5; also called ch4D5-FcWT; WT
As for B1, in assay [1], the koff (as a rule, a measure of how fast the partners let go of each other) is about 3.2e-07 s⁻¹ and the on-rate constant (kon) (in general, the second-order rate constant of association) turned out to be 170000 M⁻¹ s⁻¹.

B2: ch4D5-FcMT1 (antibody, human IgG1, kappa)
heavy: QVQLQQSGPELVKPGASLKLSCTASGFNIKDTYIHWVKQRPEQGLEWIGRIYPTNGYTRYDPKFQDKATITADTSSNTAYLQVSRLTSEDTAVYYCSRWGGDGFYAMDYWGQGASVTVSSASTKGPSVFPLAPSSKSTSGGTAALGCLVKDYFPEPVTVSWNSGALTSGVHTFPAVLQSSGLYSLSSVVTVPSSSLGTQTYICNVNHKPSNTKVDKRVEPKSCDKTHTCPPCPAPELLGGPSVFLLPPKPKDTLMISRTPEVTCVVVDVSHEDPEVKFNWYVDGVEVHNAKTKPPEEQYNSTLRVVSILTVLHQDWLNGKEYKCKVSNKALPAPIEKTISKAKGQPREPQVYTLPPSRDELTKNQVSLTCLVKGFYPSDIAVEWESNGQPENNYKTTPLVLDSDGSFFLYSKLTVDKSRWQQGNVFSCSVMHEALHNHYTQKSLSLSPGK
light: DIVMTQSHKFMSTSVGDRVSITCKASQDVNTAVAWYQQKPGHSPKLLIYSASFRYTGVPDRFTGSRSGTDFTFTISSVQAEDLAVYYCQQHYTTPPTFGGGTKVEIKRTVAAPSVFIFPPSDEQLKSGTASVVCLLNNFYPREAKVQWKVDNALQSGNSQESVTEQDSKDSTYSLSSTLTLSKADYEKHKVYACEVTHQGLSSPVTKSFNRGEC
For B2, the “fold increase in binding” value in [2] came to 10 fold.

B3: Fc mutant 12: F243L R292P Y300L (other, UniProt P01857-1 104-330, looked up)
chain: DKTHTCPPCPAPELLGGPSVFLLPPKPKDTLMISRTPEVTCVVVDVSHEDPEVKFNWYVDGVEVHNAKTKPPEEQYNSTLRVVSVLTVLHQDWLNGKEYKCKVSNKALPAPIEKTISKAKGQPREPQVYTLPPSRDELTKNQVSLTCLVKGFYPSDIAVEWESNGQPENNYKTTPPVLDSDGSFFLYSKLTVDKSRWQQGNVFSCSVMHEALHNHYTQKSLSLSPGK
notes: domain: Fc
Consider B3, for which the WT koff/mutant koff in [3] stood at 4.6 ratio; in assay [4], 1 ratio; in assay [5], 7.4 ratio; in [6] it was 0.6 ratio.

B4: Fc mutant 18: F243L R292P Y300L V305I P396L (other, UniProt P01857-1 104-330, looked up)
chain: DKTHTCPPCPAPELLGGPSVFLLPPKPKDTLMISRTPEVTCVVVDVSHEDPEVKFNWYVDGVEVHNAKTKPPEEQYNSTLRVVSILTVLHQDWLNGKEYKCKVSNKALPAPIEKTISKAKGQPREPQVYTLPPSRDELTKNQVSLTCLVKGFYPSDIAVEWESNGQPENNYKTTPLVLDSDGSFFLYSKLTVDKSRWQQGNVFSCSVMHEALHNHYTQKSLSLSPGK
notes: domain: Fc; Same substitutions as the Fc of ch4D5-FcMT1
Turning to B4, the “binding relative to wild-type Fc” value worked out at 8.25 fold in [7], 10.1 fold in assay [8] and 1.38 fold in [9]. Besides, the WT koff/mutant koff in [3] is 8.3 ratio; in [4] it was 3.2 ratio; in [5] it was 10.1 ratio; in assay [6] it was 1.4 ratio.

B5: Fc mutant 13: F243L R292P V305I (other, UniProt P01857-1 104-330, looked up)
chain: DKTHTCPPCPAPELLGGPSVFLLPPKPKDTLMISRTPEVTCVVVDVSHEDPEVKFNWYVDGVEVHNAKTKPPEEQYNSTYRVVSILTVLHQDWLNGKEYKCKVSNKALPAPIEKTISKAKGQPREPQVYTLPPSRDELTKNQVSLTCLVKGFYPSDIAVEWESNGQPENNYKTTPPVLDSDGSFFLYSKLTVDKSRWQQGNVFSCSVMHEALHNHYTQKSLSLSPGK
notes: domain: Fc
Turning to B5, the figures for the “binding relative to wild-type Fc” value in [7] and in assay [8] were 1.43 fold and 2.56 fold, respectively. The WT koff/mutant koff was found to be 1.4 ratio in assay [3], 0.2 ratio in [4], 2.6 ratio in assay [5] and 0.1 ratio in assay [6].

B6: Fc mutant 17: F243L R292P V305I P396L (other, UniProt P01857-1 104-330, looked up)
chain: DKTHTCPPCPAPELLGGPSVFLLPPKPKDTLMISRTPEVTCVVVDVSHEDPEVKFNWYVDGVEVHNAKTKPPEEQYNSTYRVVSILTVLHQDWLNGKEYKCKVSNKALPAPIEKTISKAKGQPREPQVYTLPPSRDELTKNQVSLTCLVKGFYPSDIAVEWESNGQPENNYKTTPLVLDSDGSFFLYSKLTVDKSRWQQGNVFSCSVMHEALHNHYTQKSLSLSPGK
notes: domain: Fc
As for B6, the “binding relative to wild-type Fc” value stood at 2.53 fold in [7], 5.37 fold in assay [8] and 0.4 fold in assay [9]. The WT koff/mutant koff in assay [3] is 2.3 ratio; in [4] it was 0.8 ratio; in assay [5], 4 ratio; in [6], 0.4 ratio.

B7: Fc mutant 15: R292P V305I P396L (other, UniProt P01857-1 104-330, looked up)
chain: DKTHTCPPCPAPELLGGPSVFLFPPKPKDTLMISRTPEVTCVVVDVSHEDPEVKFNWYVDGVEVHNAKTKPPEEQYNSTYRVVSILTVLHQDWLNGKEYKCKVSNKALPAPIEKTISKAKGQPREPQVYTLPPSRDELTKNQVSLTCLVKGFYPSDIAVEWESNGQPENNYKTTPLVLDSDGSFFLYSKLTVDKSRWQQGNVFSCSVMHEALHNHYTQKSLSLSPGK
notes: domain: Fc
For B7, the “binding relative to wild-type Fc” value in assay [7] is 1.9 fold; in [8], 1.85 fold; in assay [9], 0.92 fold. Besides, the WT koff/mutant koff is 1.9 ratio in assay [3], 1.5 ratio in assay [4], 1.9 ratio in assay [5] and 0.9 ratio in assay [6].

B8: Fc mutant 16: F243L R292P Y300L P396L (other, UniProt P01857-1 104-330, looked up)
chain: DKTHTCPPCPAPELLGGPSVFLLPPKPKDTLMISRTPEVTCVVVDVSHEDPEVKFNWYVDGVEVHNAKTKPPEEQYNSTLRVVSVLTVLHQDWLNGKEYKCKVSNKALPAPIEKTISKAKGQPREPQVYTLPPSRDELTKNQVSLTCLVKGFYPSDIAVEWESNGQPENNYKTTPLVLDSDGSFFLYSKLTVDKSRWQQGNVFSCSVMHEALHNHYTQKSLSLSPGK
notes: domain: Fc
In the case of B8, the figures for the “binding relative to wild-type Fc” value in [7], in [8] and in assay [9] were 5.62 fold, 10.1 fold and 1.07 fold, respectively. Moreover, the WT koff/mutant koff in [3] came out at 5.6 ratio; in [4], 1.7 ratio; in [5] it was 10.1 ratio; in [6] it was 1.1 ratio.
